EP4538286A1 (Adlai Nortye Biopharma Co., Ltd., dated 2025)

T1: human CTLA4 protein (human, UniProt P16410 37-162, limits assumed)
T1 construct: bought protein coated on the ELISA plate; also called human CTLA4 antigen
T1 sequence (looked up): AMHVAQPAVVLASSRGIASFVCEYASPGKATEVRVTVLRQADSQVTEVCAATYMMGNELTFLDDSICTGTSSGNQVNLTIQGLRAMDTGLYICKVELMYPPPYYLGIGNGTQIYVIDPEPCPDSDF


How the values were obtained:
human CD28 protein = molecular target: T2, human CD28 protein (human, UniProt P10747 19-152); test: ELISA, plate-coated human CD28; parameters: binding strength @ 100nM: reference not given here
T2 construct: bought protein coated on the ELISA plate; also called human CD28 antigen

human CTLA4 protein = molecular target: T1, human CTLA4 protein; test: ELISA, plate-coated human CTLA4
[1] = molecular target: PD-L1 on TCR activator PD-L1-CHO cells (UniProt Q9NZQ7 19-290, limits assumed); test: cell-based or functional assay
Sequence of PD-L1 on TCR activator PD-L1-CHO cells (Q9NZQ7 19-290 limits assumed): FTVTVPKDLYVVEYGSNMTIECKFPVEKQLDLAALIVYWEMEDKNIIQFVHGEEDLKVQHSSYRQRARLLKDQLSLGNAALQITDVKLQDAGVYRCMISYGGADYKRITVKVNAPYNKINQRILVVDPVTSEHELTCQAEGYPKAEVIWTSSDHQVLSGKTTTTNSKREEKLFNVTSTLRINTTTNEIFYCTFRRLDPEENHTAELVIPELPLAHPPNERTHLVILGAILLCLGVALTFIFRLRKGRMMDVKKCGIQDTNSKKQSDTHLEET

T2 sequence (P10747 19-152 limits assumed): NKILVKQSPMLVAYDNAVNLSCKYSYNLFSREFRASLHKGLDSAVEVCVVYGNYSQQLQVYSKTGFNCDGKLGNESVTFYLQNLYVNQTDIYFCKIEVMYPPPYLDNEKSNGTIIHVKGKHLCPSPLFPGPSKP

Binder | binding result (human CD28 protein) | binding result (human CTLA4 protein) | EC50(nM), Jurkat-NFAT-Luc/CHO-PDL1 [1] [nM] | The highest induction relative to 10 nM sugemalimab [1] [%] | EC50 (human CD28 protein) [nM] | binding strength @ 100nM (human CD28 protein) [%] | EC50 (human CTLA4 protein) [nM] | binding strength @ 20nM (human CTLA4 protein) [%]
Abs-361 (other, CD80 IgV mutant fused to the N-terminus of the sugemalimab heavy chain; also called CD80 IgV mutant E35Q/A71E-sugemalimab fusion) heavy: VIHVTKEVKEVATLSCGHNVSVEELAQTRIYWQKQKKMVLTMMSGDMNIWPEYKNRTIFDITNNLSIVILELRPSDEGTYECVVLKYEKDAFKREHLAEVTLSVKADGGGGSGGGGSGGGGSGGGGSGEVQLLESGGGLVQPGGSLRLSCAASGFTFSSYAMSWVRQAPGKGLEWVSGISGSGGFTYYADSVKGRFTISRDNSKNTLYLQMNSLRAEDTAVYYCAKPPRGYNYGPFDYWGQGTLVTVSSASTKGPSVFPLAPCSRSTSESTAALGCLVKDYFPEPVTVSWNSGALTSGVHTFPAVLQSSGLYSLSSVVTVPSSSLGTKTYTCNVDHKPSNTKVDKRVESKYGPPCPPCPAPEFLGGPSVFLFPPKPKDTLMISRTPEVTCVVVDVSQEDPEVQFNWYVDGVEVHNAKTKPREEQFNSTYRVVSVLAVLHQDWLNGKEYKCKVSNKGLPSSIEKTISKAKGQPREPQVYTLPPSQEEMTKNQVSLTCLVKGFYPSDIAVAWESNGQPENNYKTTPPVLDSDGSFFLYSRLTVDKSRWQEGNVFSCSVMHEALHAHYTQKSLSLSLGK light: SYVLTQPPSVSVAPGQTARITCGGNNIGSKSVHWYQQKPGQAPVLVVYDDSDRPSGIPERFSGSNSGNTATLTISRVEAGDEADYYCQVWDSSSDHVVFGGGTKLTVLGQPKAAPSVTLFPPSSEELQANKATLVCLISDFYPGAVTVAWKADSSPVKAGVETTTPSKQSNNKYAASSYLSLTPEQWKSHRSYSCQVTHEGSTVEKTVAPTECS | no binding | no binding | 1.13 | 334 | – | – | – | –
Abs-362 (other, CD80 IgV mutant fused to the N-terminus of the sugemalimab heavy chain; also called CD80 IgV mutant E35Q/A71N-sugemalimab fusion) heavy: VIHVTKEVKEVATLSCGHNVSVEELAQTRIYWQKQKKMVLTMMSGDMNIWPEYKNRTIFDITNNLSIVILNLRPSDEGTYECVVLKYEKDAFKREHLAEVTLSVKADGGGGSGGGGSGGGGSGGGGSGEVQLLESGGGLVQPGGSLRLSCAASGFTFSSYAMSWVRQAPGKGLEWVSGISGSGGFTYYADSVKGRFTISRDNSKNTLYLQMNSLRAEDTAVYYCAKPPRGYNYGPFDYWGQGTLVTVSSASTKGPSVFPLAPCSRSTSESTAALGCLVKDYFPEPVTVSWNSGALTSGVHTFPAVLQSSGLYSLSSVVTVPSSSLGTKTYTCNVDHKPSNTKVDKRVESKYGPPCPPCPAPEFLGGPSVFLFPPKPKDTLMISRTPEVTCVVVDVSQEDPEVQFNWYVDGVEVHNAKTKPREEQFNSTYRVVSVLAVLHQDWLNGKEYKCKVSNKGLPSSIEKTISKAKGQPREPQVYTLPPSQEEMTKNQVSLTCLVKGFYPSDIAVAWESNGQPENNYKTTPPVLDSDGSFFLYSRLTVDKSRWQEGNVFSCSVMHEALHAHYTQKSLSLSLGK light: SYVLTQPPSVSVAPGQTARITCGGNNIGSKSVHWYQQKPGQAPVLVVYDDSDRPSGIPERFSGSNSGNTATLTISRVEAGDEADYYCQVWDSSSDHVVFGGGTKLTVLGQPKAAPSVTLFPPSSEELQANKATLVCLISDFYPGAVTVAWKADSSPVKAGVETTTPSKQSNNKYAASSYLSLTPEQWKSHRSYSCQVTHEGSTVEKTVAPTECS | – | – | 0.58 | 337 | 26.1 | 1100 | 8.39 | 3180
Abs-364 (other, CD80 IgV mutant fused to the N-terminus of the sugemalimab heavy chain; also called CD80 IgV mutant E35Q/A71T-sugemalimab fusion) heavy: VIHVTKEVKEVATLSCGHNVSVEELAQTRIYWQKQKKMVLTMMSGDMNIWPEYKNRTIFDITNNLSIVILTLRPSDEGTYECVVLKYEKDAFKREHLAEVTLSVKADGGGGSGGGGSGGGGSGGGGSGEVQLLESGGGLVQPGGSLRLSCAASGFTFSSYAMSWVRQAPGKGLEWVSGISGSGGFTYYADSVKGRFTISRDNSKNTLYLQMNSLRAEDTAVYYCAKPPRGYNYGPFDYWGQGTLVTVSSASTKGPSVFPLAPCSRSTSESTAALGCLVKDYFPEPVTVSWNSGALTSGVHTFPAVLQSSGLYSLSSVVTVPSSSLGTKTYTCNVDHKPSNTKVDKRVESKYGPPCPPCPAPEFLGGPSVFLFPPKPKDTLMISRTPEVTCVVVDVSQEDPEVQFNWYVDGVEVHNAKTKPREEQFNSTYRVVSVLAVLHQDWLNGKEYKCKVSNKGLPSSIEKTISKAKGQPREPQVYTLPPSQEEMTKNQVSLTCLVKGFYPSDIAVAWESNGQPENNYKTTPPVLDSDGSFFLYSRLTVDKSRWQEGNVFSCSVMHEALHAHYTQKSLSLSLGK light: SYVLTQPPSVSVAPGQTARITCGGNNIGSKSVHWYQQKPGQAPVLVVYDDSDRPSGIPERFSGSNSGNTATLTISRVEAGDEADYYCQVWDSSSDHVVFGGGTKLTVLGQPKAAPSVTLFPPSSEELQANKATLVCLISDFYPGAVTVAWKADSSPVKAGVETTTPSKQSNNKYAASSYLSLTPEQWKSHRSYSCQVTHEGSTVEKTVAPTECS | – | – | 1.06 | 150 | 27.6 | 785 | 5.45 | 3130

Results, then the binder that gave them:

binding result (human CD28 protein) | binding result (human CTLA4 protein) | EC50(nM), Jurkat-NFAT-Luc/CHO-PDL1 [1] [nM] | The highest induction relative to 10 nM sugemalimab [1] [%] | EC50 (human CD28 protein) [nM] | binding strength @ 100nM (human CD28 protein) [%] | EC50 (human CTLA4 protein) [nM] | binding strength @ 20nM (human CTLA4 protein) [%] | Binder
no binding | no binding | 1 | 121 | – | – | – | – | Abs-363 (other, CD80 IgV mutant fused to the N-terminus of the sugemalimab heavy chain; also called CD80 IgV mutant E35Q/A71Q-sugemalimab fusion) heavy: VIHVTKEVKEVATLSCGHNVSVEELAQTRIYWQKQKKMVLTMMSGDMNIWPEYKNRTIFDITNNLSIVILQLRPSDEGTYECVVLKYEKDAFKREHLAEVTLSVKADGGGGSGGGGSGGGGSGGGGSGEVQLLESGGGLVQPGGSLRLSCAASGFTFSSYAMSWVRQAPGKGLEWVSGISGSGGFTYYADSVKGRFTISRDNSKNTLYLQMNSLRAEDTAVYYCAKPPRGYNYGPFDYWGQGTLVTVSSASTKGPSVFPLAPCSRSTSESTAALGCLVKDYFPEPVTVSWNSGALTSGVHTFPAVLQSSGLYSLSSVVTVPSSSLGTKTYTCNVDHKPSNTKVDKRVESKYGPPCPPCPAPEFLGGPSVFLFPPKPKDTLMISRTPEVTCVVVDVSQEDPEVQFNWYVDGVEVHNAKTKPREEQFNSTYRVVSVLAVLHQDWLNGKEYKCKVSNKGLPSSIEKTISKAKGQPREPQVYTLPPSQEEMTKNQVSLTCLVKGFYPSDIAVAWESNGQPENNYKTTPPVLDSDGSFFLYSRLTVDKSRWQEGNVFSCSVMHEALHAHYTQKSLSLSLGK light: SYVLTQPPSVSVAPGQTARITCGGNNIGSKSVHWYQQKPGQAPVLVVYDDSDRPSGIPERFSGSNSGNTATLTISRVEAGDEADYYCQVWDSSSDHVVFGGGTKLTVLGQPKAAPSVTLFPPSSEELQANKATLVCLISDFYPGAVTVAWKADSSPVKAGVETTTPSKQSNNKYAASSYLSLTPEQWKSHRSYSCQVTHEGSTVEKTVAPTECS
– | – | 2.75 | 129 | 27.9 | 857 | 24.7 | 400 | Abs-365 (other, CD80 IgV mutant fused to the N-terminus of the sugemalimab heavy chain; also called CD80 IgV mutant E35T/A71E-sugemalimab fusion) heavy: VIHVTKEVKEVATLSCGHNVSVEELAQTRIYWQKTKKMVLTMMSGDMNIWPEYKNRTIFDITNNLSIVILELRPSDEGTYECVVLKYEKDAFKREHLAEVTLSVKADGGGGSGGGGSGGGGSGGGGSGEVQLLESGGGLVQPGGSLRLSCAASGFTFSSYAMSWVRQAPGKGLEWVSGISGSGGFTYYADSVKGRFTISRDNSKNTLYLQMNSLRAEDTAVYYCAKPPRGYNYGPFDYWGQGTLVTVSSASTKGPSVFPLAPCSRSTSESTAALGCLVKDYFPEPVTVSWNSGALTSGVHTFPAVLQSSGLYSLSSVVTVPSSSLGTKTYTCNVDHKPSNTKVDKRVESKYGPPCPPCPAPEFLGGPSVFLFPPKPKDTLMISRTPEVTCVVVDVSQEDPEVQFNWYVDGVEVHNAKTKPREEQFNSTYRVVSVLAVLHQDWLNGKEYKCKVSNKGLPSSIEKTISKAKGQPREPQVYTLPPSQEEMTKNQVSLTCLVKGFYPSDIAVAWESNGQPENNYKTTPPVLDSDGSFFLYSRLTVDKSRWQEGNVFSCSVMHEALHAHYTQKSLSLSLGK light: SYVLTQPPSVSVAPGQTARITCGGNNIGSKSVHWYQQKPGQAPVLVVYDDSDRPSGIPERFSGSNSGNTATLTISRVEAGDEADYYCQVWDSSSDHVVFGGGTKLTVLGQPKAAPSVTLFPPSSEELQANKATLVCLISDFYPGAVTVAWKADSSPVKAGVETTTPSKQSNNKYAASSYLSLTPEQWKSHRSYSCQVTHEGSTVEKTVAPTECS
